According to patent publication CN112972675A:

Target: 人PD-1 (程序性死亡受体1) (human) (UniProt Q15116)
Assay: flow cytometry receptor occupancy on patients' peripheral blood T lymphocytes (CD45RA-); bound toripalimab detected with PE-labelled anti-human IgG4 Fc, total PD-1 after saturation with toripalimab; dose groups 1, 3 and 10 mg/kg Q2W

UniProt Q15116, sequence (Q15116 25-288): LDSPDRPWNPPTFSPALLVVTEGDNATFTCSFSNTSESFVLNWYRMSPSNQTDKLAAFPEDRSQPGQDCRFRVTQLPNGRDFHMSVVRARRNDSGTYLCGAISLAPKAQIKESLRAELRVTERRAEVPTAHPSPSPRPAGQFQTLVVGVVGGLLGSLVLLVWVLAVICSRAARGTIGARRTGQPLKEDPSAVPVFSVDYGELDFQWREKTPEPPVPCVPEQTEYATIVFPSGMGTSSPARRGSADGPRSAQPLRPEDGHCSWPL

Q: For 特瑞普利单抗(Toripalimab) (antibody), which PD-1受体占位率(RO) is on record?
A: > 80%
